Source: paper PMC6347470 (Immunity, 2018)

Molecular target: the molecule itself
Assay: nonreducing PAGE and immunoblotting

B1: STING (natural protein, mouse (endogenous in BMDMs), UniProt Q3TBT3 1-378, looked up)
chain: MPYSNLHPAIPRPRGHRSKYVALIFLVASLMILWVAKDPPNHTLKYLALHLASHELGLLLKNLCCLAEELCHVQSRYQGSYWKAVRACLGCPIHCMAMILLSSYFYFLQNTADIYLSWMFGLLVLYKSLSMLLGLQSLTPAEVSAVCEEKKLNVAHGLAWSYYIGYLRLILPGLQARIRMFNQLHNNMLSGAGSRRLYILFPLDCGVPDNLSVVDPNIRFRDMLPQQNIDRAGIKNRVYSNSVYEILENGQPAGVCILEYATPLQTLFAMSQDAKAGFSREDRLEQAKLFCRTLEEILEDVPESRNNCRLIVYQEPTDGNSFSLSQEVLRHIRQEEKEEVTMNAPMTSVAPPPSVLSQEPRLLISGMDQPLPLRTDLI
- stoichiometry N: 2
